Data: the domain aggregation screens of Martell et al. (2025)

Assay: soluble fraction after stress (log2 fold change); higher = more stays soluble; pooled small domains, quantitative proteomics
Settings: stress: 75 degC
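Also: 20 min heating vs room temperature control held 20 min.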

Sequence | soluble fraction (log2)
HMDNRLFKMLYYLLDKERATAPELAAEFEVSTRTIYRDVEALSSAGIPIYAEPGRNGGIYLLQD | -2.3
HMDNTSNVEKTLRFIRQRGKVSRKEVETLLGSSKFPAISALNELLAENKIVKTGSGPAVRYSVS | -0.353
HMDNVINDGMQVRFTGNVDINGTPLKIYDRIYTAEGISDDTVVLMLGNDVYARVYLSDVVPAD | -0.975
HMDNWLSGLAVEADRMILTQPGEVFDRLSRAFEATLIRRALASTGGRRIEAAHLLGIGRNTITRKIQDLGL | -2.62
HMDPDARQDAEVWLLDFLSAGPRTAQEIFTAARVEGHTRVTVKRAKATAGIQSVKQDFDGPWVWVLPGSG | -0.455
HMDPFAYEVKVTDLAAGSSEIRTVYTEQGSFNIPSGMSGNLKIQVRSASMYDEVEPSDWYTIGEEDIN | 0.0347
HMDPLASLTPREREVLSLMAQGLSNLAVAERLVVSAGAVEKHISSIFTKLDLAPSEHEHRRVLAVLRYVAG | -2.86
HMDPPISNDARNAINAKLMKFSELHPNEMKKLVEAYKKEFKVSKISPITLARQGEFLSHAISKIDDT | -0.0671
HMDPQDGTVKFFNGARGFGFITPDGGGADVFVHVSAVERAGLTQLVEGQRVNFQTLPDTKGKGPKAVNLKV | 0.106
HMDPSDQLYTVPPSAEGLRLDLFLVQHVPHMTRALATQLTGAGQVRVNGRRAKKGDRLPSGAQVRLEQAP | -0.85
HMDPSHGESRENLDIMRIIDETHLEYPSWGYRKMTDHLRANHGYTINRKRVRRLMRLMDIIALFPG | -1.33
HMDPSVTGLLTRLGISPQTAQELAGQYEEPYILEKIAIVEAHPEYVKNAAGFVITALQEDWKD | -0.591
HMDPTHDMHFLVKDQVTGQPLPNMPYRLQLDNGQTLTGRTDALGMTEKISGHSPHIASIEVPY | 0.117
HMDPVILDINSVKALLGISNKADFMAELSRLVVTEGDKKMIIPLAKEVGIDNVAVYKRNEIENISNYK | -0.129
HMDQAEDVLSIPVDALMRGNQVYIKDDTVTEQQGPIPAGFKAVEVETGLISDSYVEIKSGLSEGDTVYVAE | 0.129
HMDQESFGYFHVKYADVKQVADLVQKLNIPAVTWADERTRRLVALGSPATLQRISQVLNMVDL | -0.781
HMDQHPYGEDSFRGDNPPAGFDIKGNEDSMKFHEPSSPWYGRTIAEVWFRSAAAAEAAGFVNAV | -0.0403
HMDQINNDLRKLIEFLPEDQKTVLKMRHFQEMSFKEIAKATGVSINTALGRMRYALINLRKLIEENEI | -2.06
HMDQPLIEPLSERELEVLSLIAAGYSNAEIAERLVIAVGTVKRHINNLYGKLGAGSRTQALAIAREIGLM | -0.107
HMDQTKYDAIITEAKKLTAEGQYKESEEKLATIPVSDLGKPHYSIVKETVEKLNNQNNEGLKRQEEVAVE | -0.0329
HMDQVLHQLVEVLRRSEIRISPAETLDAFKVLRNVGIDNKSLLREALALTLAKSIHEKIIFYETFDEFFT | -1.46
HMDRADIDAVDAEWVRATMERLGLRAKHIESHTGISKSTLSILLNGHRPLTRWHKIAFYYLFKHIEF | -2.76
HMDRDQNVEEGQRSLKSEMGRFGLLIANMDDLAERVNYGNAEDMYAAIGAGDLRLMQVVHAAEEMLG | 0.097
HMDRENNITAGREILEKELSRLALNMKMVNLQDYAARFNVKHSDDILAGIGAGDIRPAHIVNAIAEKLT | -0.0151
HMDREQLELYVGEVRVLQVGELRRIAIGNGKVLQASALDRGQLLLIPEAPGQSVLYLWTRDGTERHLSISV | 0.0104
HMDRESFIKLGRELARSAFAHVGQKSTEKALETAADVLRLKDPNEVLARLGSAELTGRQVVQAIYPELI | -0.277
HMDRFRYYITEDSVQRGTYPYVDETTLKRFTSQLHKYEQGMISAYGYLEYSKPLTAEQIKDYTLMPSP | -0.0579
HMDRFVLQLSKRYYDSSIEGVRKALAAFPVKTELLDQDRGGRPFYHENGKENEPVFRIMFHPEEGM | -0.421

Sequence | soluble fraction (log2)
HMDRIISTPMPGRVVKIPVTEGEPVAKGATVITISAMKMESEYKSPIDGIVKKIHVSEGDNINANQPLIEI | -0.51
HMDRKFFYEDQYQDYLGEELKVSFFDTDNKKTVRGTLSEVTPHGIKINLEQETQEIPFSSIIQANLI | 0.224
HMDRPARDEAQSWLADVLADGPVPTAEIREEAEAAGLAWRTIQRARIALSVEPIRGDGRNAWLWQLPG | -1.49
HMDRQIQITVAENEAGQRLDAFLAAKIPDMSRSYIQKLIEDGLILVNGQSTKGKVKTYSGMNIEVYMPE | -0.0484
HMDRRDEYHQHLLRLLLSGEIRDKDELQRRKVKLSGEYGLAGVPKNSETLALVPPDRLPEVLDILR | -0.214
HMDRSIGDIIAELRDLSAEQVERVLAHQRETGVRFGEAAVALGYASKEDVLFALSQQFHYPYAPEE | 0.0114
HMDRSVTAAELRLAAMDLLARREHGSQELEAKLSRRFHKRHYDVELLRSVIEQLTVEGLLSDERFAVS | -0.951
HMDRVTYPVSFNGKVRFQLELDAGMNAKEVETAALGHEKTAAQIEGKTIRKVIVVPGRIINIVV | -1.22
HMDRWTPLVVAVLSRGSHRFGELRAAIGGITPKVLTDTLRSMERDGLITRDQAPGVPPRVDYALTPLGS | -1.43
HMDSALKDDLNAFVKKLDVESQTLFMRRYFLGESVSSLASRFEMSEDNVGVKLFRIRAKLKKYLTGKGYD | -3.1
HMDSAMMDLVMRVQLALFTKGYDVGIIDGKIGPKTRAQIKRYQSDNRLSSTGTLTTSLLTSLGIQ | -3.16
HMDSATDRVALKELLNTLSARERTIITLRYFSDQTQTQVAKSLGISQVQVSRLENAILQRLRKL | -2.08
HMDSDELEAFRLITSVNGVGPKLGIAILSEFTAEKLTVFIASGDAKALTAASGVGIKLAQRIVLELKDKVG | -0.351
HMDSDFIKIEVLFNERNRLDLKAMMEASGFTDRGQFLSIMADLTGDENWDRNLDRGDIFYLPRSFTI | -1.28
HMDSDIGQQLKILLTVGTFMPSTELKAIAQQFGMKKPTDLKEWVELESDTQRIKGNPTKGYWINEINDL | -0.682
HMDSEEVYQMTKHKMDAAQISVAKRIHINLVLVKLLELHHLGYDLRHYHAQHHAFIKRLNLPEYFRFD | -1.67
HMDSEKVLTNLKEELVLQLSNIEPYGYVPSQYWYSKVQRVQSVQELGKYVDGDLEAFVMKYAEDWESQK | -0.115
HMDSGFMRTTQSYTVARLAEIFRLSGEDYLAVLREYDGWYQDLTSTKDLIRKGSDVPVPEGV | -1.67
HMDSGLEQAKTAALENAELETSQVTFIKAELDYDDGKKVYEIEFVTSAMKYEYQVKADDFSILEMSKETIE | -0.755
HMDSHSAESVRQRIKDMIAAEASKSILSDDTIVENLKSEGIEIARRTVAKYRESLNIPSSIQRRRIARSEA | -0.19
HMDSILMPGVVNKELREALAILKNEGIGWADPEYASSTVTRNYVISTDPVEGIELAPGQKVRLVVSLGPKP | -0.326
HMDSIQMKNNSILYYGNTAGYLDAKRNTAVVDPMFRTDEMESYLSEQKGLSVEWASGTYDRLT | 0.0501
HMDSLEIEEPITVKSLSAASGLKISDIIRKLMQEGIMATANQVIDREQAEAVLIDYNVDLVVKR | -0.281
HMDSLNWVEKIINTLPEQQRLIIQMRDIEQYEFAEIAKILEMNETAIRVALSRARKTIREFMIKTH | -2.07
HMDSLSLTELRIDSASPWIGNRISDFSPYAGELVIMIIRGEETIVPNGDTIILDKDLLVIYSS | -2.11
HMDSNFNYELVGFRLDDMGLNSSVIVKRNNQEFVIQKGDLLENKYLLNSVTKKNINFSYLGKNYQI | -1.07
HMDSNPLSEREQEVLQLVAKGASNQTIAEQLFLSNGTIRNYMTAIFNKLNANNRTDAVRIARENGW | -0.207
